From paper PMC3647168 (Scientific Reports, 2013)

Target: T1, His-DDA3 (UniProt Q6PGN9 1-363)
T1 sequence (looked up): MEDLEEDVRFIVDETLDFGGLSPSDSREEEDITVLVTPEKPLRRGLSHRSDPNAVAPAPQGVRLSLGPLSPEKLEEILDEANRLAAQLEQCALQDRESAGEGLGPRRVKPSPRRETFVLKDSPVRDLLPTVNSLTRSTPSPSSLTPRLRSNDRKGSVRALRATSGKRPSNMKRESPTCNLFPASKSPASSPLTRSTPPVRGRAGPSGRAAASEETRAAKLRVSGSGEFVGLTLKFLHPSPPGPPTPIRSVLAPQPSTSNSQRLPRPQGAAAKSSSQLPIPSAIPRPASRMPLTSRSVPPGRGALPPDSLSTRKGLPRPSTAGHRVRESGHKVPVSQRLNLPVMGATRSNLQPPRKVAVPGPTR
Assay: pull-down

B1: GST-EB1 (natural protein, UniProt Q15691 1-268, looked up)
chain: MAVNVYSTSVTSDNLSRHDMLAWINESLQLNLTKIEQLCSGAAYCQFMDMLFPGSIALKKVKFQAKLEHEYIQNFKILQAGFKRMGVDKIIPVDKLVKGKFQDNFEFVQWFKKFFDANYDGKDYDPVAARQGQETAVAPSLVAPALNKPKKPLTSSSAAPQRPISTQRTAAAPKAGPGVVRKNPGVGNGDDEAAELMQQVNVLKLTVEDLEKERDFYFGKLRNIELICQENEGENDPVLQRIVDILYATDEGFVIPDEGGPQEEQEEY
B1: binds.
